Measured values from publication PMC9482650, “Quantitative fragmentomics allow affinity mapping of interactomes” (Nature Communications, 2022).

T1: GRIP1_4, Q9Y3R0
T1 sequence (Q9Y3R0 467-571, limits assumed, looked up): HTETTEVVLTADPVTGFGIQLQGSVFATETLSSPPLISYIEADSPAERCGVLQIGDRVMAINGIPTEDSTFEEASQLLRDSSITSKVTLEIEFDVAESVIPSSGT

T2: LNX2_2, Q8N448
T2 sequence (Q8N448 334-432, limits assumed, looked up): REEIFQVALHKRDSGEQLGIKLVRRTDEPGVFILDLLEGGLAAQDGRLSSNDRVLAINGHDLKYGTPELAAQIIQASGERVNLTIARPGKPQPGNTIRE

T3: LNX2_3, Q8N448
T3 sequence (Q8N448 463-564, limits assumed, looked up): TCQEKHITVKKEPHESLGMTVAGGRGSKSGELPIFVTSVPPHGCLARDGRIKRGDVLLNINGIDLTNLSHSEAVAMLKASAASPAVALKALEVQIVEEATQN

T4: RADIL, Q96JH8
T4 sequence (Q96JH8 971-1071, limits assumed, looked up): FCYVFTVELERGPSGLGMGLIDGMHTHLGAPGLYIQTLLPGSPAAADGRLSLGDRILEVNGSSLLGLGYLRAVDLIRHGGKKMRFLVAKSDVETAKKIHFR

T5: NHERF3_1, Q5T2W1
T5 sequence (Q5T2W1 4-100, limits assumed, looked up): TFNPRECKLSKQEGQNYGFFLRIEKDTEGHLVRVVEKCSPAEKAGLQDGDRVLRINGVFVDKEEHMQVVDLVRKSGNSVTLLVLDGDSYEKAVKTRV

T6: MPP2, Q14168
T6 sequence (Q14168 180-250, limits assumed, looked up): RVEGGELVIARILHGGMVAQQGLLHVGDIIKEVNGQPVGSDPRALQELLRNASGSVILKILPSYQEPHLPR

T7: LIN7B, Q9HAP6
T7 sequence (Q9HAP6 88-185, limits assumed, looked up): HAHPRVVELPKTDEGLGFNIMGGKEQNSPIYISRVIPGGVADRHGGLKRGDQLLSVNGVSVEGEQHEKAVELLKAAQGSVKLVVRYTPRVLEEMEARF

T8: ARHGEF11, O15085
T8 sequence (O15085 42-136, limits assumed, looked up): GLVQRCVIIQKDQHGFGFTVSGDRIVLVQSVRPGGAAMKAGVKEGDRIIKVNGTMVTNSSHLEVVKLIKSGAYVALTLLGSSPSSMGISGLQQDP

T9: DVL3, Q92997
T9 sequence (Q92997 244-331, limits assumed, looked up): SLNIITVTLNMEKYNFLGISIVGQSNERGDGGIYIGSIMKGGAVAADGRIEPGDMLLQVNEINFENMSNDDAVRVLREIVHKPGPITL

T10: GRIP1_5, Q9Y3R0
T10 sequence (Q9Y3R0 568-668, limits assumed, looked up): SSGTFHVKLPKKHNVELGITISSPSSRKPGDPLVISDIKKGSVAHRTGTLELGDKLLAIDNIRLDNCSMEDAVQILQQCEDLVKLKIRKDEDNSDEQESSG

T11: DLG3_3, Q92796
T11 sequence (Q92796 374-475, limits assumed, looked up): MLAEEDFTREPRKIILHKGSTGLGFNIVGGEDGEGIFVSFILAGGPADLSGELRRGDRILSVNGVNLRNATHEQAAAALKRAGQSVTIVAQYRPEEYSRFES

T12: TIAM2, Q8IVF5
T12 sequence (Q8IVF5 885-986, limits assumed, looked up): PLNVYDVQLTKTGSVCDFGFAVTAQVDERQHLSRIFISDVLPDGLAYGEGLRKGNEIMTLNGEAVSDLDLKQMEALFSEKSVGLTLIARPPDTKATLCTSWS


These binders were tested against T1, GRIP1_4, Q9Y3R0 (assay: holdup assay). Conditions: plain residues with an end cap or a label only (N-terminal biotin on a linker: ado-ado).
Parameters: key: below the threshold = too weak to quantify, mostly under pKd 3.1 to 4

For NTALVESEDL [PALLS, Q8WX93;Q8WX93-1], which pKd is on record?
Its pKd is “below the threshold”.

The binders below were run against T2, LNX2_2, Q8N448 (assay: holdup assay). Conditions: plain residues with an end cap or a label only (N-terminal biotin on a linker: ado-ado).
Parameters: key: below the threshold = too weak to quantify, mostly under pKd 3.1 to 4

How did the pKd turn out when NTALVESEDL [PALLS, Q8WX93;Q8WX93-1] was run?
The pKd was “below the threshold”.

The binders below were run against T3, LNX2_3, Q8N448 (assay: holdup assay). Conditions: plain residues with an end cap or a label only (N-terminal biotin on a linker: ado-ado).
Parameters: key: below the threshold = too weak to quantify, mostly under pKd 3.1 to 4

For NTALVESEDL [PALLS, Q8WX93;Q8WX93-1], which pKd is on record?
Its pKd is “below the threshold”.

What follows are binders tested against T4, RADIL, Q96JH8 (assay: holdup assay). Conditions: plain residues with an end cap or a label only (N-terminal biotin on a linker: ado-ado).
Parameters: key: below the threshold = too weak to quantify, mostly under pKd 3.1 to 4

How did the pKd turn out when NTALVESEDL [PALLS, Q8WX93;Q8WX93-1] was run?
The pKd was “below the threshold”.

The binders below were run against T5, NHERF3_1, Q5T2W1 (assay: holdup assay). Conditions: plain residues with an end cap or a label only (N-terminal biotin on a linker: ado-ado).
Parameters: key: below the threshold = too weak to quantify, mostly under pKd 3.1 to 4

With NTALVESEDL [PALLS, Q8WX93;Q8WX93-1] as the binder, how does the pKd read?
The pKd was “below the threshold”.

The binders below were run against T6, MPP2, Q14168 (assay: holdup assay). Conditions: plain residues with an end cap or a label only (N-terminal biotin on a linker: ado-ado).
Parameters: key: below the threshold = too weak to quantify, mostly under pKd 3.1 to 4

With NTALVESEDL [PALLS, Q8WX93;Q8WX93-1] as the binder, how does the pKd read?
The pKd was “below the threshold”.

What follows are binders tested against T7, LIN7B, Q9HAP6 (assay: holdup assay). Conditions: plain residues with an end cap or a label only (N-terminal biotin on a linker: ado-ado).
Parameters: key: below the threshold = too weak to quantify, mostly under pKd 3.1 to 4

Which pKd does the source give for NTALVESEDL [PALLS, Q8WX93;Q8WX93-1] here?
Its pKd is “below the threshold”.

The binders below were run against SNX27, Q96L92 (assay: holdup assay). Conditions: plain residues with an end cap or a label only (N-terminal biotin on a linker: ado-ado).
Parameters: key: below the threshold = too weak to quantify, mostly under pKd 3.1 to 4

Which pKd does the source give for NTALVESEDL [PALLS, Q8WX93;Q8WX93-1] here?
Its pKd is 4.38.

What follows are binders tested against IL16_3, Q14005 (assay: holdup assay). Conditions: plain residues with an end cap or a label only (N-terminal biotin on a linker: ado-ado).
Chain of IL16_3, Q14005 (Q14005 1107-1207): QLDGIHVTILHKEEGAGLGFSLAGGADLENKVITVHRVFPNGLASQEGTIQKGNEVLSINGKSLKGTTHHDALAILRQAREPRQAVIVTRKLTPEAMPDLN
Parameters: key: below the threshold = too weak to quantify, mostly under pKd 3.1 to 4

For NTALVESEDL [PALLS, Q8WX93;Q8WX93-1], which pKd is on record?
Its pKd is “below the threshold”.

The binders below were run against Inadl_2, Q8NI35 (assay: holdup assay). Conditions: plain residues with an end cap or a label only (N-terminal biotin on a linker: ado-ado).
Chain of Inadl_2, Q8NI35 (Q8NI35 238-335): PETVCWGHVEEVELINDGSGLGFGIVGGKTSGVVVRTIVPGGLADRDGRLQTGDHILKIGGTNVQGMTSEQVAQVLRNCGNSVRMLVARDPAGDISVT
Parameters: key: below the threshold = too weak to quantify, mostly under pKd 3.1 to 4

How did the pKd turn out when NTALVESEDL [PALLS, Q8WX93;Q8WX93-1] was run?
The pKd was “below the threshold”.

The binders below were run against T8, ARHGEF11, O15085 (assay: holdup assay). Conditions: plain residues with an end cap or a label only (N-terminal biotin on a linker: ado-ado).
Parameters: key: below the threshold = too weak to quantify, mostly under pKd 3.1 to 4

NTALVESEDL [PALLS, Q8WX93;Q8WX93-1] was tested. Which pKd did it give?
The pKd was 4.05.

Each binder was assayed against MAGI2_2, Q86UL8 (assay: holdup assay). Conditions: plain residues with an end cap or a label only (N-terminal biotin on a linker: ado-ado).
Chain of MAGI2_2, Q86UL8 (Q86UL8 410-522): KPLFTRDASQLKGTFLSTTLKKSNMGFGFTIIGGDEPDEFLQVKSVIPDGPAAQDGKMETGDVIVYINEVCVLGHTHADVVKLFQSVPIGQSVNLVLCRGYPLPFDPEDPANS
Parameters: key: below the threshold = too weak to quantify, mostly under pKd 3.1 to 4

With NTALVESEDL [PALLS, Q8WX93;Q8WX93-1] as the binder, how does the pKd read?
The pKd was “below the threshold”.

These binders were tested against T9, DVL3, Q92997 (assay: holdup assay). Conditions: plain residues with an end cap or a label only (N-terminal biotin on a linker: ado-ado).
Parameters: key: below the threshold = too weak to quantify, mostly under pKd 3.1 to 4

For NTALVESEDL [PALLS, Q8WX93;Q8WX93-1], which pKd is on record?
Its pKd is “below the threshold”.

These binders were tested against LAP2, Q96RT1 (assay: holdup assay). Conditions: plain residues with an end cap or a label only (N-terminal biotin on a linker: ado-ado).
Chain of LAP2, Q96RT1 (Q96RT1 other isoform, or with tags, fused parts or gaps): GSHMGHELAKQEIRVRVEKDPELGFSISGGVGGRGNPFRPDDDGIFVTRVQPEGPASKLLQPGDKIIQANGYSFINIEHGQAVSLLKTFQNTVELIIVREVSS
Parameters: key: below the threshold = too weak to quantify, mostly under pKd 3.1 to 4

How did the pKd turn out when NTALVESEDL [PALLS, Q8WX93;Q8WX93-1] was run?
Its pKd is “below the threshold”.

The binders below were run against TJP2_1, Q9UDY2 (assay: holdup assay). Conditions: plain residues with an end cap or a label only (N-terminal biotin on a linker: ado-ado).
Chain of TJP2_1, Q9UDY2 (Q9UDY2 24-128): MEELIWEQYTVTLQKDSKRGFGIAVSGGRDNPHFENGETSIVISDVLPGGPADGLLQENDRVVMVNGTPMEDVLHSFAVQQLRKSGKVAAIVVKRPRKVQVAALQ
Parameters: key: below the threshold = too weak to quantify, mostly under pKd 3.1 to 4

NTALVESEDL [PALLS, Q8WX93;Q8WX93-1] was tested. Which pKd did it give?
The pKd was “below the threshold”.

The binders below were run against GRIP2_5, Q9C0E4 (assay: holdup assay). Conditions: plain residues with an end cap or a label only (N-terminal biotin on a linker: ado-ado).
Chain of GRIP2_5, Q9C0E4 (Q9C0E4 544-642): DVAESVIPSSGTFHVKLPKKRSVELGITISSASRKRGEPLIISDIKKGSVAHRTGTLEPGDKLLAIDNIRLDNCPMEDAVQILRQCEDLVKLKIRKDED
Parameters: key: below the threshold = too weak to quantify, mostly under pKd 3.1 to 4

With NTALVESEDL [PALLS, Q8WX93;Q8WX93-1] as the binder, how does the pKd read?
The pKd was “below the threshold”.

Each binder was assayed against T10, GRIP1_5, Q9Y3R0 (assay: holdup assay). Conditions: plain residues with an end cap or a label only (N-terminal biotin on a linker: ado-ado).
Parameters: key: below the threshold = too weak to quantify, mostly under pKd 3.1 to 4

With NTALVESEDL [PALLS, Q8WX93;Q8WX93-1] as the binder, how does the pKd read?
Its pKd is “below the threshold”.

The binders below were run against GIPC2, Q8TF65 (assay: holdup assay). Conditions: plain residues with an end cap or a label only (N-terminal biotin on a linker: ado-ado).
Chain of GIPC2, Q8TF65 (Q8TF65 112-203): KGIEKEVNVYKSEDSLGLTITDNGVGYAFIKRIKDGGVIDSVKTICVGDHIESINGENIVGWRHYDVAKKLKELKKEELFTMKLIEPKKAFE
Parameters: key: below the threshold = too weak to quantify, mostly under pKd 3.1 to 4

For NTALVESEDL [PALLS, Q8WX93;Q8WX93-1], which pKd is on record?
Its pKd is “below the threshold”.

Each binder was assayed against DLG1_2, Q12959 (assay: holdup assay). Conditions: plain residues with an end cap or a label only (N-terminal biotin on a linker: ado-ado).
Chain of DLG1_2, Q12959 (Q12959 314-412): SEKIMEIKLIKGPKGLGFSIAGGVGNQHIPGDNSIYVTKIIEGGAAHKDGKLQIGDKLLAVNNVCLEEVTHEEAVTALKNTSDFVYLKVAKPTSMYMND
Parameters: key: below the threshold = too weak to quantify, mostly under pKd 3.1 to 4

With NTALVESEDL [PALLS, Q8WX93;Q8WX93-1] as the binder, how does the pKd read?
The pKd was “below the threshold”.

The binders below were run against T11, DLG3_3, Q92796 (assay: holdup assay). Conditions: plain residues with an end cap or a label only (N-terminal biotin on a linker: ado-ado).
Parameters: key: below the threshold = too weak to quantify, mostly under pKd 3.1 to 4

How did the pKd turn out when NTALVESEDL [PALLS, Q8WX93;Q8WX93-1] was run?
Its pKd is “below the threshold”.

These binders were tested against MAST2, Q6P0Q8 (assay: holdup assay). Conditions: plain residues with an end cap or a label only (N-terminal biotin on a linker: ado-ado).
Chain of MAST2, Q6P0Q8 (Q6P0Q8 1099-1202): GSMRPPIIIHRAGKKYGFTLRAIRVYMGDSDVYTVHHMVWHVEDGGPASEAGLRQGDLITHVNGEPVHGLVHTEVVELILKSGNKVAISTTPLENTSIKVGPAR
Parameters: key: below the threshold = too weak to quantify, mostly under pKd 3.1 to 4

How did the pKd turn out when NTALVESEDL [PALLS, Q8WX93;Q8WX93-1] was run?
Its pKd is 5.15.

What follows are binders tested against T12, TIAM2, Q8IVF5 (assay: holdup assay). Conditions: plain residues with an end cap or a label only (N-terminal biotin on a linker: ado-ado).
Parameters: key: below the threshold = too weak to quantify, mostly under pKd 3.1 to 4

How did the pKd turn out when NTALVESEDL [PALLS, Q8WX93;Q8WX93-1] was run?
Its pKd is “below the threshold”.

Each binder was assayed against NOS1, P29475 (assay: holdup assay). Conditions: plain residues with an end cap or a label only (N-terminal biotin on a linker: ado-ado).
Chain of NOS1, P29475 (P29475 9-101): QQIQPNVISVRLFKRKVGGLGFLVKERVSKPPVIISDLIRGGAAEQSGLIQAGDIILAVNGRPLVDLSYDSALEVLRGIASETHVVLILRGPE
Parameters: key: below the threshold = too weak to quantify, mostly under pKd 3.1 to 4

With NTALVESEDL [PALLS, Q8WX93;Q8WX93-1] as the binder, how does the pKd read?
Its pKd is “below the threshold”.
